# According to the DeepSol protein solubility set:
# Assay: soluble on expression in E. coli; label from the status in PepcDB or PDB records
row,Sequence,soluble on expression in E. coli
1,MAHHHHHHMLPLDSPPVTQLAKEFVNFINEACTPFHAVEVLSSWLSNAGYQRLKEGETWPKLTNGYRYFITRNDSSLVAFSVGGRFVAENGLKIVGAHTDSPNLALKPRTLAGRSDYQGVAVQCYGGGLWHTWFDRDLTVAGRVIISSSKLVKRLVKVNKPIMRIPTLAIHLQSVEERNAFGPNKEKHLVPVIATTLSHTPNGDVSEHHNSQLLILLAESLGCRPSEIVDYDLSVVDTQDAVVGGANDEFIYAPRLDNLISCFCGVKALLESDKTLEEENMIRMVCLFDNEEVGSSTSQGAGGSLVPDVIEYISASGGLRAQLVANSFLMSVDGAHAVHPNYQDKHEEKHRPLIHRGPVIKYNANMRYATNGVTAAIVKAIAKRASVPIQEFCVKNDSPCGSTIGPILSSLSGIQTVDLGNPMLSMHSIREMCGTADLLHLKNLLEAFFNHYTRDMVTS,not soluble
2,MAHHHHHHMLPSVMDRYESYDFGKELLSLLKTASSTPGAHMGVFTGMGLLLAKYRPEKLLEHVNMHAKKINTHKMIAACEEYHLWLVLRVLHVNNEDWLAAATTMMHHHVDAWDHDVFKTVVSHLGSSDLVYNSISFYIQTNPQLLDDFLTSMFKTLDPERVLLEVKKLAPVHFIRQYLESAQERNSRRVNEAINKLYMEEEDFTALRDSVERFDNFDSAELSAELEKMELFEFRKIALFLHRRNKRFTHAVAVAKENKLYQDAIETAAESANPQIVEDLLDFFVVDHPDCFVACLYTCYDYLTPQVVMEKAWLNKRTDLAMPYFIQVIQDYTTKLSRMEKSMMDAQQLAKEAARRAGPLHTGANDPLMIQAGPANPMGGAMPMPMPMPMPMPMMGGVPPGNYGPPPQFDNRRPY,not soluble
3,MAHHHHHHMLSIRKCNIYDLLSMQQCNSINLPENYNLRYYFYHALSWPYLSQIAEDVNGKVCGYSLGKLEEDNEYKGHLTSVAVLKTYRKLKLAFYLILQTHQHLKDIYRANNICLHVRVSNNAALNLYYNLLNYKVNGIETQYYGNKENAYLMEHVFAR,not soluble
4,MAHHHHHHMMQSKVLPTPQDVVLQGLLSLDSTVKTKTHALVSRQLDRLESYLRIKCGWSVPLSSSSTSAEAGCGSNVVRVSEYVRAFTPDGVPIVDRNGGSFNCFVCCGFGDHAMDFAPGAAKVLGKLVEHQAQHLREEDIEKTKTWGLLTSKLSPSRRAAVEEELQLLFNGVDSDAVKRKGSRTPSEASALALLRHEDNPYSTNRFANMVRKEVKMDSSPPILSRLCALEDVFLTHLEPLRRRFHAKATELALRENTPDWLRTFVFCFMYEEDDDPAAQARKEQHVRSLQRLASQYETPVTDAKTTGDGAEELPLTPAEQSKRKQAELERRAREVFAKRV,not soluble
5,MAHHHHHHMMRQNLTSDSLITDTLRKAGVPCDVVGIVETVAGACRAIAAGLRNDGVTAAKSKNNFGDDVLSVDVMADKIISEALNSCQHVASYVSEESPSLASTAHSGKATYSVSYDPLDGSSIITSNFTVGSIFAVWPGNTPIGLTVRDMAASVVAVYGPRVVLFVGQEELGVAEFFCGADGEWKLAKRVWAGVCTPRTATVTAAGRGVKLKATVFSPGNLRAVRHLPWYKQLITMYMQEGATLRYTGGMVPDVCQIIVKGDGIYMTPASPQHKMKLRLLFEAAPMAFLIHCAGGRSTTGLTNMMNVRVVSMEQTTPIALGCARDVERYERMCRGCSKL,soluble
6,MAHHHHHHMMSPFPPLPVYLSGLLTLHVPTRCLHFLVLTPMKTRVGLHRCCASYLRLLSQDRLQLHNPIEFIGALHFFTSLCSPLGVADFLRMEDPAAQEVVVTPWTVEGDVNYDKLIKNFGCQAIDDKLLERMERLTGKKPHHFLRRGIFFSHRDLNLILDAYEKGQPFYLYTGRGPSSESMHVGHLIPFMFTKWLQDTFHVPLVIQLTDDEKFFFKDLTMEEIDKMTTENLKDIIAFGFDPKLTFIFRDFEYVGQMYRIVARIEKAYTASQVRGCFGFKMEDNCGRWMFPAIQAAPSFSAAFPHIFPLQKGNVFCMIPQAIDQDPYFRLTRDVAPRMGYLKPAVIHSKFFPGLSGSKGKMSSSTGAAVFLTDTPKMIKDKINKHAFSGGGADKKEQLLLGGNTNVDVPVQWLRFFLEDDEELKRLQKDYMLGRIMTGDVKKVLIRQITSIVTAHQESRKKVTEADVELFTAVRVMGPAKEEAESRK,not soluble
7,MAHHHHHHMNESVEQLFDELISDFNKNDKIGEGNESFNIREKVGNKWTNEDILNNINKNDFSKYTEYSLSSLYITDERIHIDEDNKFQDFLNVITKASDVNNIYKWIDSYYKYDSKEELDILSPKAQKKEYIFREYLEPFHLKGLCLLRKYEKGAILKSSEKSKVDVNIVSEYIVHNTYKQIMKSFGYYLSHKIYIKAHIFHNKYGNSDHIIVLILQHFKDENFKQPLFHDRALVQIKSYSNDNKYSELTQKNLLHYAEIFKPFVSLRKLNYNFVEEFKDKIMFGI,soluble
8,MAHHHHHHMNKNYPGRITSAPLAQQARGLSLRPGAPASFLDRAQPGGAGTGIGAQQSHHNNNLPRAPRAKPPTQLQTPAPAPPLPKEEAEEERSGAAEVAPSEVSYPEDHIYDVEDFIKLRKCQAPVPSEVMEYARAMWKEMPENMDDMENNSLRDNLFREQNASTMSKVMTDRKINNEVLGILGKVTASNLEKMKKELTDLPIRQSTKEEIDEV,soluble
9,MAHHHHHHMNKTNEVDDWTEWLDDDDEKREDEFHIDSTKDEAIKKKILQNNLDDIADFLDIGDNKKKKVEETENKVKPKVTEKIITLESTPLNSIKDCETLGEILAGRIRKCKAKSVALERFISIIITASESKLEDKDLLTVSRKLQEMVSQREKKKRYAQINKKKPNEVKNSIKNYEDEVDMIYGDLSYDEDDYEEEVVDEYLENF,soluble
10,MAHHHHHHMNLIVHDLDFMKRILLNDERKWGEESAPGEGRTESSHQPKIITIVLNNTLCAHSAKFIANSDVLICADGGANRLYNLCQSLATERGAIDDEGSSLKGEEDKNTALHASHTNERSHHVSGRHTISDLFNMPVEKKEKALKRPTEIVPHIICGDFDSINAHVYSYYKNKSVIFEKCANQENTDLDKCIDVIRGYIRTNDKILILGATGNRFDHTCANISCLYKNASLNSLYLIGENNFLFLLQQGSHIIHVSPDVFCKGCGILPFGGKCTIKTEGLKYNLNDECLSFDTLISSSNEVVQREVKIFNDSPVVWSAQLI,not soluble
11,MAHHHHHHMNSKDTNELKRGAGYLKEKAIIGLTRVTGNELDRAIYKVTSHKLKAPKEKHMQRVLAATRGYSSQKTHKGRNTCEYIVSEFEKRLHTHNWIVVLKTLVTFHRLMKDGSDEVNNCIQQNRNIFCFRNIKDLSESSEGAVQSVFIRQYMYYLEERSSSQRKLGASKRMENSEFGVFLRSLDVDTLGPVFESLLVQLSALVEVQYKEAIVDNFCTMEAFQRLVNDGKLLYQILSDRAIFILDGFSGFTLQQKKDWVRRYREYTVVGERLRLLFESIANSKRMFDEPPPPLKALPGSLLESLEREVRLSSIAHEDITETLESLGITADEKTPLKATTSDGTMAIYSPVATEKALDTTETGAPPVTEPKKESGFSIDDLFVPPPVTDSHQQTSYNPSTIPQGTQMEGPLIQTEANPNMTYTFPTGVPVGQNFFGQQPTGNSLTWEAPSPAPGSMQPQSAAGIVPSWSDSSASWGRGNCGSNTVDPFKDLYASQKGGQ,soluble
12,MAHHHHHHMNWCLSRRWRFRLELLSASLLSRVHIGCHAEPRNNMSTTPAKNELASVHESIQITLSKIQEDSAKRSSQEQQLISSVASAKCLAGIFSAHSPTNDEVVRALKSAGEEEQVEAECLQRYQQFVEAKKRCFTSVEADLRSVSKVLSGVLAASEKVEEPTSGDCRAEVQENQCDGELLHLLRLWRTVVCLHDLVLGSLIKRGSDGSPCELQRFSAGEERSYVRESALRNTVADTEKMLLAIRKRWRDLTEEAEAVRATAESMTPLPFSDEATLLIADEKDEPLVASINQGLHELQQSSDRLRKKKVAVDEGAAALLEKVRNLSLQTAACRCSVEAFSQRSREAADDANSLMSAKARALQELHRKAQECASEQGLLDRDVGSYKQLCALLVEWAENEKSEAERIVAAEQEYHSLVSKERAQQEKLRCLRLSIKNLESEVRDASTEKQRIVGEVQYLSKLVSNPTVVTQVLARASEECHPEREVTALHNYLRFVQKARLERHTSHE,not soluble
13,MAHHHHHHMPLVKAETDASFVAEVAESVGGACARMNDHISVMIEEYLRRRTQQVRDDVKQELDAVRVHLERKIADAEAAKAVEEERYHKKKVQVLQAAVELQKMHANLHLQRLFHTWRRCADVRQERRRLAEEAHIHIGRLSLFHAYMQWRLFAAALRQKRLEAKEAHKRDCREQELLGQIEGYQRQLEGERAKDASLNEKLKEAFVRGMCALNREAVHVLHGSEENQDADVEAIAEILSRESHSRHRSVTPGHMDSSTLSNVHGHGVCPVHHIDAKGSFYHPCFSPGYCEYDRHSGSRAPVSSAVPPSASGPFVVSADPKSARSIDSSPPVPFRHLSKSSTTRWRM,not soluble
14,MAHHHHHHMPYQHIKVPEGGDKITVNKDFSLNVSDQPIIPYIEGDGTGFDITPVMIKVVDAAVEKAYGGKKKIHWMEIYAGEKATKVYGPDVWLPEETLQVLKEYVVSIKGPLTTPVGGGIRSLNVALRQELDLYVCLRPIQYFKGVPSPVREPEKTNMVIFRENSEDIYAGIEWAAESEQAKKVIKFLQEEMGVKKIRFPQTSGIGIKPVSKEGTERLVRKAIQYAIDNDRKSVTLVHKGNIMKFTEGAFRDAGYALAQKEFGAELIDGGPWMKFKNPKTGNEIVVKDSIADAFLQQILLRPAEYDVIATLNLNGDYISDALAAQVGGIGIAPGANLSDSVAMFEATHGTAPKYAGKDYVNPGSEILSAEMMLRHLGWTEAADVIISAMEKSIKQKRVTYDFARLMEGATQVSCSGFGQVLIENME,soluble
15,MAHHHHHHMQDEAVRAALQSGVWREKKDPKSGKTYYVNVQTRVSVWNLAKELARLQQQQKFTEEMELRKQKKLRSLAEERQAQAKKWQEEEEALMQRMAELEREKARLESEITILQGPTEVEAASLQEEQSRLLDAKQSLELIVSEELRKRRESAAELQQLQARLEALRQERQEELGMFESLRKRLEQLRQEHAEALADLQREEAVEESLREELQREERQLEDALHEEVRLKELLKMREDEVDRMKAELKAVCQRKAELQQQHQRLLEEVAESAMGAAEDTLQEPPPSSSLLLSHLQREVANRKKSLRHLMQQQRLAKEAEWMEAESAELRRFTALAEREAQRLAQFSRELSDQVRAVTPLLEAVKHDVQQLEEEMEELR,soluble
16,MAHHHHHHMQICPEGKGDSAASELLRFSDADGAVVREVLLDALCRVVPASLFSDAAALENVDEAELCVLLRYATEIQEQNAAFFQVMGGSEVMSRPERAATTEGRRVLQHFTRLVLARCRHLLHHHDGPPPTLLSGDAENIPFVDLQLYADHNHPEVRVHQKIGRANAQGLRYAGLQSTASTTMAELLSRLESANQRMAAGARGLRCDLLRHVAQKAALGKSKLTLEDVTRALPLLAAQMGKTSEQQVKSTYERLLTAMSTTIAVALQQPQKPACILALLEGLAGCHYTPSSYKLLEMVMLRMMMRGAFTLSDAGRCLIAMLQVVGPQKVSQSVKQAIAMRVVAAVDARSDSTAADVLAVLRALRYSCYSSFASLVCLVSKSPLMGNTANWQPSEHVRYAVLLAAAAAALETEANSELGIAVSTTARERLLLGLSPTHPPSAVPPHSPACVGEDAYQECVTACAALDVSPVPPALTAWAHADIDARPVHSLCTPALAVSTMEALEAMSLAPSRWYTAYVNYLTDTLEQMQRRPLLEDDAETAVRCLFLQRAPGAVTRLASVLLEHEVDRLDQTLTRGAVVRDDARAPPVCTFQQRSLERQTSEGETETRLLRYCAALQHASREMLSTRSAEV,not soluble
